Experimental data as given in the supplement of paper PMC10065799, “High-throughput profiling of sequence recognition by tyrosine kinases and SH2 domains using bacterial peptide display” (eLife, 2023).
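Throughout, for SH2 binding enrichment of the phosphorylated peptide, bacterial display: peptide library displayed on the E. coli surface as eCPX fusions, selected cells deep-sequenced, score is each peptide's frequency after selection divided by its frequency in the input.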
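Throughout, for phosphorylation enrichment, bacterial display: 11-residue human phosphosite peptides and single-mutation variants displayed on the E. coli surface, counted by deep sequencing, each peptide's frequency after selection divided by its frequency in the unselected input library; frequency after pTyr selection over input frequency; kinase dosed for 20-30% of maximal phosphorylation in three min.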

Each sequence was assayed against FGFR1 (UniProt P11362) (assay: phosphorylation enrichment, bacterial display (enrichment ratio); higher = better substrate or ligand; peptides without Tyr show the background).
Sequence of FGFR1 (P11362 whole entry, looked up): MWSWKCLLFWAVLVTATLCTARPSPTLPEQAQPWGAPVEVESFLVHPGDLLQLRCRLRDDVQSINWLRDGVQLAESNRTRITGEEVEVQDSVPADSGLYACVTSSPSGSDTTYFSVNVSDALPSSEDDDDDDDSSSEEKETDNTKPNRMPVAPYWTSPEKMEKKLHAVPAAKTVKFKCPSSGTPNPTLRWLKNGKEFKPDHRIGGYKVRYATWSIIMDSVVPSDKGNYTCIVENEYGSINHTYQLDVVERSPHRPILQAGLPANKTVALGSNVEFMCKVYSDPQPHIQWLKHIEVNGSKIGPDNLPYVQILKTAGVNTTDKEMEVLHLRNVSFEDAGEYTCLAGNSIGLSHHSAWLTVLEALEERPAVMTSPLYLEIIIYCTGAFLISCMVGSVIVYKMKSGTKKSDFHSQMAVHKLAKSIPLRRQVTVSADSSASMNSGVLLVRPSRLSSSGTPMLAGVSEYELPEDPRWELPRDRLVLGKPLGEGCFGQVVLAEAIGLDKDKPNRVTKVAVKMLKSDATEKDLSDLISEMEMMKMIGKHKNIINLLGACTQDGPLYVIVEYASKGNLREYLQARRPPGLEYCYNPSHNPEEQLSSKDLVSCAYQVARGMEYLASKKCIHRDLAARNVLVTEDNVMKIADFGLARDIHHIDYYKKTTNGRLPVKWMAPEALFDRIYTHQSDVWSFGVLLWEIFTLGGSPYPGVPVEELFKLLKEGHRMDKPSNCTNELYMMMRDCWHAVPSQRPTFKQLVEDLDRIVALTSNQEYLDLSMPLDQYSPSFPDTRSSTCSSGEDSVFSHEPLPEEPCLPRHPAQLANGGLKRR
For ADGLEYPRTGL [MMUT_Y287_S288P], the phosphorylation enrichment was 0.414.
For SGTYQYIIAKF [FOXL2_Y83_I80T], the phosphorylation enrichment was 3.65.
With SVVVPYQPPEV [TP53_Y220_E221Q] the phosphorylation enrichment was 0.494.
Work on TVDASYYGGRG [ANTXR2_Y380] yielded a phosphorylation enrichment of 0.546.
Sequence DEEEEYEYMNR [ERBB3_Y1197_D1194E] has a phosphorylation enrichment of 0.536.
Sequence TGILLHGLASR [QARS1_Y57_Y57H] has a phosphorylation enrichment of 0.367.
In the case of RFMELYDLNRD [BBS2_Y648_YF], the phosphorylation enrichment is reported as 0.762.
With EACPSYSHVVL [CHST6_Y168_R166P] the phosphorylation enrichment was 0.538.
With GRRGQYVMLSE [TTC7A_Y396] the phosphorylation enrichment was 0.506.
In the case of WAFNLYDINKF [KCNIP3_Y174_D179Y_YF], the phosphorylation enrichment is reported as 0.497.
With KGPGEYVNIEF [IRS1_Y896_S892G] the phosphorylation enrichment was 1.43.
With QEIATYRRQLE [KRT14_Y415_L418Q] the phosphorylation enrichment was 0.65.
HEPKGYNANFC [TGFB2_Y341] showed a phosphorylation enrichment of 0.647.
Work on YYLGKYLQEVL [KLB_Y910] yielded a phosphorylation enrichment of 3.66.
Sequence DFTSRYLNASD [PKHD1_Y828] has a phosphorylation enrichment of 0.469.
Sequence SHEELYKWFTS [DYNC1H1_Y3051] has a phosphorylation enrichment of 5.57.
Sequence LRTAVHHEILI [CREBBP_Y1450_Y1450H] has a phosphorylation enrichment of 0.963.
RAMPVYKKAEH [TP63_Y231] gave a phosphorylation enrichment of 0.304.
CNLDTYQKRLR [PLA2G2D_Y126_R121C] gave a phosphorylation enrichment of 0.532.
With HNVPIYEGFAL [ACTA1_Y168_YF] the phosphorylation enrichment was 0.649.
LKALHYMAQTS [SACS_Y3367_V3369A] was tested, and the phosphorylation enrichment was 0.765.
LLREWYLQDPY [SIX3_Y225] showed a phosphorylation enrichment of 0.867.
For YRTPGYREVVI [TNS2_Y673_A670T], the phosphorylation enrichment was 0.42.
Sequence CTTIFYNFMCN [TP53_Y234_H233Y_YF] has a phosphorylation enrichment of 1.05.
In the case of VGTTAYMAPEA [IRAK4_Y354], the phosphorylation enrichment is reported as 0.418.
With HEKKAYSFCGT [RPS6KA3_Y226] the phosphorylation enrichment was 1.51.
In the case of TLRKTYGEMAD [ALB_Y108_E106K], the phosphorylation enrichment is reported as 0.508.
Sequence GISDEYHMIRH [GCDH_Y398_V400M] has a phosphorylation enrichment of 7.6.
In the case of QMQNPYSSHSS [MUC13_Y501_R503S], the phosphorylation enrichment is reported as 0.636.
QYQEKYKQMEQ [HCN4_Y531_V534M] gave a phosphorylation enrichment of 0.618.
VDGFVYKLHPS [GCK_Y413_S411F] gave a phosphorylation enrichment of 0.407.
KLQKKYGPIFS [CYP17A1_Y60_YF] showed a phosphorylation enrichment of 0.308.
For RLNCIYFKDQT [RS1_Y165_W163C_YF], the phosphorylation enrichment was 0.683.

What follows are sequences tested against Grb2 SH2 (UniProt P62993) (assay: SH2 binding enrichment of the phosphorylated peptide, bacterial display (enrichment ratio); higher = better substrate or ligand; peptides without Tyr show the background).
Sequence of Grb2 SH2 (P62993 whole entry, looked up): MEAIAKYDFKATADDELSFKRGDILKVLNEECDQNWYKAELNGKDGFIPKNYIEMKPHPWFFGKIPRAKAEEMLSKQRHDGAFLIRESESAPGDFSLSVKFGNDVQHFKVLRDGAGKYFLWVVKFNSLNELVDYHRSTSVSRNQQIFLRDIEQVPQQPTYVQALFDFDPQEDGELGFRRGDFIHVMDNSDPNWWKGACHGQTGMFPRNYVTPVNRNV
ADGLEYPRTGL [MMUT_Y287_S288P] gave an SH2 binding enrichment of 0.679.
With SGTYQYIIAKF [FOXL2_Y83_I80T] the SH2 binding enrichment was 0.74.
For SVVVPYQPPEV [TP53_Y220_E221Q], the SH2 binding enrichment was 0.969.
For TVDASYYGGRG [ANTXR2_Y380], the SH2 binding enrichment was 0.763.
For DEEEEYEYMNR [ERBB3_Y1197_D1194E], the SH2 binding enrichment was 0.817.
TGILLHGLASR [QARS1_Y57_Y57H] showed an SH2 binding enrichment of 0.783.
With RFMELYDLNRD [BBS2_Y648_YF] the SH2 binding enrichment was 1.02.
Sequence EACPSYSHVVL [CHST6_Y168_R166P] has an SH2 binding enrichment of 1.
Work on GRRGQYVMLSE [TTC7A_Y396] yielded an SH2 binding enrichment of 0.84.
For WAFNLYDINKF [KCNIP3_Y174_D179Y_YF], the SH2 binding enrichment was 0.905.
Sequence KGPGEYVNIEF [IRS1_Y896_S892G] has an SH2 binding enrichment of 4.8.
Work on QEIATYRRQLE [KRT14_Y415_L418Q] yielded an SH2 binding enrichment of 0.768.
Work on HEPKGYNANFC [TGFB2_Y341] yielded an SH2 binding enrichment of 1.07.
Work on YYLGKYLQEVL [KLB_Y910] yielded an SH2 binding enrichment of 0.877.
DFTSRYLNASD [PKHD1_Y828] gave an SH2 binding enrichment of 1.25.
In the case of SHEELYKWFTS [DYNC1H1_Y3051], the SH2 binding enrichment is reported as 0.887.
For LRTAVHHEILI [CREBBP_Y1450_Y1450H], the SH2 binding enrichment was 0.973.
With RAMPVYKKAEH [TP63_Y231] the SH2 binding enrichment was 1.29.
For CNLDTYQKRLR [PLA2G2D_Y126_R121C], the SH2 binding enrichment was 0.974.
HNVPIYEGFAL [ACTA1_Y168_YF] gave an SH2 binding enrichment of 0.849.
LKALHYMAQTS [SACS_Y3367_V3369A] showed an SH2 binding enrichment of 0.861.
LLREWYLQDPY [SIX3_Y225] gave an SH2 binding enrichment of 1.43.
YRTPGYREVVI [TNS2_Y673_A670T] was tested, and the SH2 binding enrichment was 0.941.
With CTTIFYNFMCN [TP53_Y234_H233Y_YF] the SH2 binding enrichment was 2.09.
VGTTAYMAPEA [IRAK4_Y354] showed an SH2 binding enrichment of 0.918.
Work on HEKKAYSFCGT [RPS6KA3_Y226] yielded an SH2 binding enrichment of 0.999.
Sequence TLRKTYGEMAD [ALB_Y108_E106K] has an SH2 binding enrichment of 0.788.
Sequence GISDEYHMIRH [GCDH_Y398_V400M] has an SH2 binding enrichment of 0.931.
For QMQNPYSSHSS [MUC13_Y501_R503S], the SH2 binding enrichment was 0.921.
QYQEKYKQMEQ [HCN4_Y531_V534M] showed an SH2 binding enrichment of 0.891.
With VDGFVYKLHPS [GCK_Y413_S411F] the SH2 binding enrichment was 0.693.
KLQKKYGPIFS [CYP17A1_Y60_YF] was tested, and the SH2 binding enrichment was 0.882.
In the case of RLNCIYFKDQT [RS1_Y165_W163C_YF], the SH2 binding enrichment is reported as 1.05.

What follows are sequences tested against SHP2-C SH2 in the same assay as above.
In the case of ADGLEYPRTGL [MMUT_Y287_S288P], the SH2 binding enrichment is reported as 0.598.
In the case of SGTYQYIIAKF [FOXL2_Y83_I80T], the SH2 binding enrichment is reported as 0.541.
In the case of SVVVPYQPPEV [TP53_Y220_E221Q], the SH2 binding enrichment is reported as 0.696.
Sequence TVDASYYGGRG [ANTXR2_Y380] has an SH2 binding enrichment of 0.424.
DEEEEYEYMNR [ERBB3_Y1197_D1194E] was tested, and the SH2 binding enrichment was 0.645.
TGILLHGLASR [QARS1_Y57_Y57H] showed an SH2 binding enrichment of 0.801.
For RFMELYDLNRD [BBS2_Y648_YF], the SH2 binding enrichment was 1.06.
For EACPSYSHVVL [CHST6_Y168_R166P], the SH2 binding enrichment was 1.75.
In the case of GRRGQYVMLSE [TTC7A_Y396], the SH2 binding enrichment is reported as 0.673.
WAFNLYDINKF [KCNIP3_Y174_D179Y_YF] gave an SH2 binding enrichment of 0.731.
Work on KGPGEYVNIEF [IRS1_Y896_S892G] yielded an SH2 binding enrichment of 1.22.
QEIATYRRQLE [KRT14_Y415_L418Q] was tested, and the SH2 binding enrichment was 0.332.
With HEPKGYNANFC [TGFB2_Y341] the SH2 binding enrichment was 0.693.
YYLGKYLQEVL [KLB_Y910] was tested, and the SH2 binding enrichment was 0.66.
DFTSRYLNASD [PKHD1_Y828] showed an SH2 binding enrichment of 0.779.
For SHEELYKWFTS [DYNC1H1_Y3051], the SH2 binding enrichment was 0.837.
In the case of LRTAVHHEILI [CREBBP_Y1450_Y1450H], the SH2 binding enrichment is reported as 0.756.
RAMPVYKKAEH [TP63_Y231] showed an SH2 binding enrichment of 0.459.
CNLDTYQKRLR [PLA2G2D_Y126_R121C] gave an SH2 binding enrichment of 0.78.
HNVPIYEGFAL [ACTA1_Y168_YF] gave an SH2 binding enrichment of 0.794.
LKALHYMAQTS [SACS_Y3367_V3369A] showed an SH2 binding enrichment of 0.707.
LLREWYLQDPY [SIX3_Y225] showed an SH2 binding enrichment of 1.28.
Work on YRTPGYREVVI [TNS2_Y673_A670T] yielded an SH2 binding enrichment of 1.03.
For CTTIFYNFMCN [TP53_Y234_H233Y_YF], the SH2 binding enrichment was 1.8.
Work on VGTTAYMAPEA [IRAK4_Y354] yielded an SH2 binding enrichment of 0.692.
For HEKKAYSFCGT [RPS6KA3_Y226], the SH2 binding enrichment was 0.729.
With TLRKTYGEMAD [ALB_Y108_E106K] the SH2 binding enrichment was 0.537.
GISDEYHMIRH [GCDH_Y398_V400M] was tested, and the SH2 binding enrichment was 0.587.
QMQNPYSSHSS [MUC13_Y501_R503S] gave an SH2 binding enrichment of 0.526.
Work on QYQEKYKQMEQ [HCN4_Y531_V534M] yielded an SH2 binding enrichment of 0.705.
VDGFVYKLHPS [GCK_Y413_S411F] gave an SH2 binding enrichment of 0.55.
KLQKKYGPIFS [CYP17A1_Y60_YF] was tested, and the SH2 binding enrichment was 0.754.
With RLNCIYFKDQT [RS1_Y165_W163C_YF] the SH2 binding enrichment was 0.818.

These sequences were tested against c-Src SH2 in the same assay as above.
For ADGLEYPRTGL [MMUT_Y287_S288P], the SH2 binding enrichment was 0.465.
SGTYQYIIAKF [FOXL2_Y83_I80T] showed an SH2 binding enrichment of 0.696.
Work on SVVVPYQPPEV [TP53_Y220_E221Q] yielded an SH2 binding enrichment of 0.535.
For TVDASYYGGRG [ANTXR2_Y380], the SH2 binding enrichment was 0.604.
DEEEEYEYMNR [ERBB3_Y1197_D1194E] showed an SH2 binding enrichment of 0.526.
Sequence TGILLHGLASR [QARS1_Y57_Y57H] has an SH2 binding enrichment of 0.593.
Sequence RFMELYDLNRD [BBS2_Y648_YF] has an SH2 binding enrichment of 0.563.
EACPSYSHVVL [CHST6_Y168_R166P] was tested, and the SH2 binding enrichment was 1.52.
Sequence GRRGQYVMLSE [TTC7A_Y396] has an SH2 binding enrichment of 2.01.
WAFNLYDINKF [KCNIP3_Y174_D179Y_YF] showed an SH2 binding enrichment of 0.519.
With KGPGEYVNIEF [IRS1_Y896_S892G] the SH2 binding enrichment was 5.64.
Sequence QEIATYRRQLE [KRT14_Y415_L418Q] has an SH2 binding enrichment of 0.593.
With HEPKGYNANFC [TGFB2_Y341] the SH2 binding enrichment was 0.664.
Sequence YYLGKYLQEVL [KLB_Y910] has an SH2 binding enrichment of 0.686.
Sequence DFTSRYLNASD [PKHD1_Y828] has an SH2 binding enrichment of 0.633.
SHEELYKWFTS [DYNC1H1_Y3051] was tested, and the SH2 binding enrichment was 0.562.
For LRTAVHHEILI [CREBBP_Y1450_Y1450H], the SH2 binding enrichment was 0.48.
In the case of RAMPVYKKAEH [TP63_Y231], the SH2 binding enrichment is reported as 0.351.
CNLDTYQKRLR [PLA2G2D_Y126_R121C] showed an SH2 binding enrichment of 0.629.
HNVPIYEGFAL [ACTA1_Y168_YF] showed an SH2 binding enrichment of 0.431.
In the case of LKALHYMAQTS [SACS_Y3367_V3369A], the SH2 binding enrichment is reported as 0.609.
For LLREWYLQDPY [SIX3_Y225], the SH2 binding enrichment was 0.76.
Sequence YRTPGYREVVI [TNS2_Y673_A670T] has an SH2 binding enrichment of 0.753.
With CTTIFYNFMCN [TP53_Y234_H233Y_YF] the SH2 binding enrichment was 1.45.
VGTTAYMAPEA [IRAK4_Y354] was tested, and the SH2 binding enrichment was 0.568.
With HEKKAYSFCGT [RPS6KA3_Y226] the SH2 binding enrichment was 0.808.
With TLRKTYGEMAD [ALB_Y108_E106K] the SH2 binding enrichment was 0.449.
In the case of GISDEYHMIRH [GCDH_Y398_V400M], the SH2 binding enrichment is reported as 0.781.
QMQNPYSSHSS [MUC13_Y501_R503S] gave an SH2 binding enrichment of 0.49.
With QYQEKYKQMEQ [HCN4_Y531_V534M] the SH2 binding enrichment was 0.436.
VDGFVYKLHPS [GCK_Y413_S411F] showed an SH2 binding enrichment of 0.519.
In the case of KLQKKYGPIFS [CYP17A1_Y60_YF], the SH2 binding enrichment is reported as 0.461.
For RLNCIYFKDQT [RS1_Y165_W163C_YF], the SH2 binding enrichment was 0.711.
